Test results taken from patent publication US5837813.

Experiments:
[1] = molecular target: human fibronectin (human) (UniProt P02751)
[2] = molecular target: human fibronectin (human) (UniProt P02751); assay: solid-phase competition, 125I-fibronectin on coated fibronectin
[3] = molecular target: human fibronectin (human) (UniProt P02751); assay: solid-phase competition, 125I-14 kDa fragment on coated fibronectin

^125 I-fibronectin bound to IMR-90 cells after one hour [1]: 25%
IC50 [2]: 200 to 300 µM
fold less potent than P1 [3]: 100 fold
Binder: LISIQQYGHQEVTRFDFTTTSTSTPVTSNTV [polypeptide P3]
